Measurements as given in publication PMC9978635.

What was measured:
Experiment in all cases: BioID2 proximity biotinylation, streptavidin purification, TMT quantitative LC-MS
Conditions in all cases: untreated (-K18) neurons, 3 wk; read off a plot
CELF2 = target: CELF2
[1] = target: NADH:ubiquinone oxidoreductase core subunit S8 (UniProt O00217)
SRPR = target: SRPR
TAGLN3 = target: TAGLN3

UniProt O00217, sequence (O00217 35-210): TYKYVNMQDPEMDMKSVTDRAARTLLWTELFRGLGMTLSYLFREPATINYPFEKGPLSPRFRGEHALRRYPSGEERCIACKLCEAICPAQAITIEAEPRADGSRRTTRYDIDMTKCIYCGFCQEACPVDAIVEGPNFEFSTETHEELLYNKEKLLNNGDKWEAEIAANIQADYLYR

0N4R tau[WT]-BioID2 (from UniProt P10636-6) P301L
enrichment (log2 abundance ratio) (CELF2): 1.2 | other: log2 abundance ratio (mutant/WT) (log2 abundance ratio) (CELF2): 2.1 | enrichment (log2 abundance ratio) [1]: 2.5 | other: log2 abundance ratio (mutant/WT) (log2 abundance ratio) [1]: 2 | enrichment (log2 abundance ratio) (SRPR): 0.65 | other: log2 abundance ratio (mutant/WT) (log2 abundance ratio) (SRPR): 2 | enrichment (log2 abundance ratio) (TAGLN3): 2 | other: log2 abundance ratio (mutant/WT) (log2 abundance ratio) (TAGLN3): 0.95
